The values that follow come from patent US20260167739A1 (PHANES THERAPEUTICS, published 2026).

T1: human 5T4 (32-355) tagged with poly-his at the C-terminus (ACROBiosystems, CAT #TPG-H52E5) (human, UniProt Q13641 32-355)
T1 construct: range 32-355; Bought protein; also called recombinant human 5T4; recombinant 5T4 Ser32-Ser355; not shown: C-terminal poly-his tag
T1 sequence (looked up): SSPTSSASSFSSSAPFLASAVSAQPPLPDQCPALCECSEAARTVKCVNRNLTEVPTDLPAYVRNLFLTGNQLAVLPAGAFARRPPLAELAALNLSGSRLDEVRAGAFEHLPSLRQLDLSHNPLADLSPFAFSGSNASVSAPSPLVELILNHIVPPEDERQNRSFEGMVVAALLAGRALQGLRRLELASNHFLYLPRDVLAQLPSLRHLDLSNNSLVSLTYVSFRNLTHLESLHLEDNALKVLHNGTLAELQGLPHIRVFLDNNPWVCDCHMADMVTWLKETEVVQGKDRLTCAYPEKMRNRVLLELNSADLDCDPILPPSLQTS

B1: L3D5-C (antibody, V domains shown)
VH: GVQLQQSGPELVKPGASVKISCKASGYTFTDFYMNWVKQSHGKSLEWIGDINPNNGVTTYNQKFKDKATLTVDKSSSTAYMELRSLTSEDSAVYYCATGAIHYGYDGYFDVWGAGTTVTVSS
VL: DIVMTQSPATLSVTPGDRVSLSCRASQSISDYLHWYQQKSHESPRLLIKYASQSISGIPSRFSGSGSGSDFTLSINSVEPEDVGVYYCQNGHSFPLTFGAGTKLELK
notes: Mouse VH and VL fused to human IgG1 heavy and kappa light constant regions; also called chimeric version of L3D5
B2: L3F10-C (antibody, V domains shown)
VH: EVKLVESGGGLVNTGGSLKLSCAASGFTFSDYFMYWVRQTPDKRLEWVAYISNSGGNTYYPDTVKGRFTISRDNAKNTLYLQMSRLKSEDTAMYFCTRPRPYGGYYAGIYYAMDYWGQGTSVTVSS
VL: DIQMTQTTSSLSASLGDRVTISCRASQDISNYLNWYQQKPDGTVKLLIYYTSRLHSGVPSRFSGSGSGTDYSLTISNLEPEDIATYYCQQYSKLPLTFGAGTKLELK
notes: Mouse VH and VL fused to the constant regions of human IgG1 heavy chain and kappa light chain; also called chimeric version of L3F10
B3: L3E1-C (antibody, V domains shown)
VH: QVQLQQFGAELVKPGAAVKMSCKASGYTFTSYWITWVKQRPGQGLDWIGDIYPGGGSTNYHEKFKSKATLTVDTSSSTAYMQLSSLTSEDSAVYYCARGLRDFDYWGQGTTITVSS
VL: DIQMTQTASSLSASLGDRVTISCRASQHINNYLNWYQQKPDGTVKLLIYSTSRLHSGVPSRFSGSGSGTDFSLTISNLEPEDIATYYCQQYSKLPRTFGGGTKLEIK
notes: Mouse VH and VL fused to human IgG1 heavy and kappa light constant regions; also called chimeric version of L3E1
B4: L1C7-C (antibody, V domains shown)
VH: EFQLQQSGPEVVKPGASVKISCKASGYSFTVYNMNWVKQSNGKSLDWIGVINPNYGTVTYNQKFKGKATLTVDQSSSTAYMQLNSLSSEDSAVYYCATTATWGQGTTLTVSS
VL: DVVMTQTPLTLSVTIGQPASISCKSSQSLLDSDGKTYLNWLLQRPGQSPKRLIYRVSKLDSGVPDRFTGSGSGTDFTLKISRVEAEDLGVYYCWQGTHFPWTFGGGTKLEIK
notes: Mouse VH and VL fused to human IgG1 heavy and kappa light constant regions; also called chimeric version of L1C7
B5: L2B11-C (antibody, V domains shown)
VH: EVKLVESEGGLVQPGSSMKLSCTASGFTFSDYYMAWVRQVPEKGLEWVGNINYDGSRTYYLDSLKSRFIISRDNGKNILYLQMSSLKSEDTATYYCAREGDNYGNSHYAMDYWGQGTSVTVSS
VL: DVLMTQTPLSLPVSLGDQASISCRSSQSFVHSNGNTYLEWYLQKPGQSPKLLIYKVSNRFSGVPDRFTGSGSGTDFTLKISRVEAEDLGVYYCFQGSHVPLTFGAGTRLELK
notes: Mouse VH and VL fused to human IgG1 heavy and kappa light constant regions; also called chimeric version of L2B11
B6: S3C7-C (antibody, V domains shown)
VH: EVKLVESGGGLVNTGGSLKLSCAASGFNFSHYYMYWVRQTPEKRLEWVAYIGNSGGSTYNPDTVKGRFTISRDNAKNTLYLQMSRLKSEDTAIYYCARQNYYSGSFYFDSWGQGTTITVSS
VL: NIVLTQSPTSMSMSVGERVTLSCKASENVGTYVSWYQQKPEQSPKLLIYGKSNRYTGVPDRFTGSGSAPDFTLTISSVQAEDLADYYCGQSYSFPFTFGTGTKLEIK
notes: Mouse VH and VL fused to human IgG1 heavy and kappa light constant regions; also called chimeric version of S3C7
B7: L1H7-C (antibody, V domains shown)
VH: QVQLQQSGPELVKPGASVKISCKASGYAFSSSWMNWVKQRPGKGLEWIGRIYPGNGNTNYNGKFKGKATLTADKSSSTAYMQLNSLTSEDSAVYFCASRFAYWGQGTLVAVSA
VL: DIVLTQSPASLAVSLGQRATISCRASKSVSTSGYSYMHWYQQKPGQPPKLLIYLASNLESGVPARFSGSGSGTDFTLNIHPVEEEDAATYYCQHSRELRTFGGGTKLEIK
notes: Mouse VH and VL fused to human IgG1 heavy and kappa light constant regions; also called chimeric version of L1H7
B8: L1F2-C (antibody, V domains shown)
VH: QVHLQQSGAELVRPGTSVKVSCKASGYAFTNYVIEWVKQRPGQGLEWIGVINPGSGGTNYNENFKGKATLTADKSSSTAYMQLSSLTSEDSAVYFCARGTVELYAMDYWGQGTSVTVSS
VL: DIQMTQTTSSLSASLGDRVTISCRASQDISYYLNWYQQKPDGTVKLLISYTSRLHSGVPSRFSGSGSGTDYSLTISNLEQEDIATYFCQQDIKHPYTFGGGTELEIK
notes: Mouse VH and VL fused to human IgG1 heavy and kappa light constant regions; also called chimeric version of L1F2
B9: S2F4-C (antibody, V domains shown)
VH: EVQLVESGGGLVKPGGSLKLSCAASGFTFSDYGMHWVRQAPEKGLEWIAYISFGSSTIYYADTVKGRFTISRDNAKNTLFLQMTSLRSEDTAMYYCARTHGYYRSWFAYWGQGTLVTVSA
VL: DIVLTQSPASLAVSLGQRATISCRASQSVSTSSYSYMNWYQQKPGQPPKLLIKYASNLESGVPARFSGSGSGTDFTLNIHPVEEEDTATYYCQHSWEIPLTFGAGTKLELK
notes: Mouse VH and VL fused to human IgG1 heavy and kappa light constant regions; also called chimeric version of S2F4
B10: L1D8-CR11-C (antibody, V domains shown)
VH: QVQLQQSGAELMKPGASLKLSCKATGYTFTGYWIEWVKQRPGHGLEWIGEILPGRSSTNYNERFKGKAIFTADTSSNTAYMQLSSLTTEDSAIYYCARGRRDFDYWGQGTTITVSS
VL: SIVMTQTPKFLPVSAGDRVTMTCKASQSVGNNVAWYQQKPGQSPKVLIYDASNRYTGVPDRFTGSGSGTDFTFTISSVQVEDLAVYFCQQYYSSPPTFGAGTKLELK
notes: Mouse VH and VL fused to human IgG1 heavy and kappa light constant regions; also called chimeric version of L1D8-CR11; LID8-CR11
B11: L1D8-CR21-C (antibody, V domains shown)
VH: QVQLQQSGAELMKPGASLKLSCKATGYTFTGSWIEWVKQRPGHGLEWIGEILPGRSSTNYNERFKGKAIFTADTSSNTAYMQLSSLTTEDSAIYYCARGRRDFDYWGQGTTITVSS
VL: SIVMTQTPKFLPVSAGDRVTMTCKASQSVGNNVAWYQQKPGQSPKVLIYDASNRYTGVPDRFTGSGSGTDFTFTISSVQVEDLAVYFCQQYYSSPPTFGAGTKLELK
notes: Mouse VH and VL fused to human IgG1 heavy and kappa light constant regions; also called chimeric version of L1D8-CR21; LID8-CR21

For this experiment, the target named is T1, human 5T4 (32-355) tagged with poly-his …. Kind of experiment: ELISA, 5T4-His coated on the plate. From the text: FIGS. 1A-IC show the binding of purified chimeric anti-5T4 mAbs (VH and VL regions of mouse mAb fused to the constant regions of human IgG1 heavy chain and kappa light chain, respectively) to immobilized recombinant 5T4 in an ELISA assay. The antigen was human 5T4 (32-355) tagged with poly-his at the C-terminus (ACROBiosystems, CAT #TPG-H52E5). L3F10-C, the chimeric version of L3F10; the same naming rule is used for the rest of the antibodies. Isotype Control (IgG1), a negative control antibody.
Purified chimeric mAbs were tested in an ELISA assay for their ability to bind to immobilized 5T4. Recombinant human 5T4 (ACROBiosystems, CAT #TPG-H52E5) in PBS was coated onto a 96-well plate (Corning, CAT #3361) at 4° C. overnight. The next day, plates were blocked using 5% BSA in TBST for 1 hour at room temperature and washed using TBST. Antibody samples at various concentrations in 5% BSA in TBST were added to the wells and incubated for 1 hour at room temperature. Plates were washed with TBST and bound antibody was labeled using mouse anti-human IgG Fc HRP (Thermo, CAT #H10007) for 1 hour at room temperature. Plates were washed again using TBST, and then ELISAs were developed using 1 Step Ultra TMB detection reagent (Thermo, CAT #34028) for 4 minutes before being quenched with ELISA stop solution (Thermo. CAT #SS04). Plates were quantified by measuring absorbance at 450 nm by plate reader.
Take B1: the binding result is given as “binds”.
B2: the binding result is on record as “binds”.
On to B3, for which the binding result is listed as “binds”.
Consider B4, for which the binding result is on record as “binds”.
The same measure for B5: “binds”; for B6: “binds”; for B7: “binds”.
For B8, the binding result is listed as “binds”.
As for B9, the binding result is recorded as “binds”.
On to B10, for which the binding result is given as “binds”.
In the case of B11, the binding result was “binds”.
